Data on five molecules can be found in paper PMC2728795 (Biochemistry, 2009).

The labels stand for the following.
B1: GST(541–605)PRG (domain or fragment)
chain: GKPKSSSQSTFHIPLSPVEVKPGNVRNIIQHFENNQQYDAPEPGTQRLSTGSFPEDLLESDSSRS
B2: GST(541–605, I569A)PRG (domain or fragment)
chain: GKPKSSSQSTFHIPLSPVEVKPGNVRNIAQHFENNQQYDAPEPGTQRLSTGSFPEDLLESDSSRS
B3: GST(541–605, E573A)PRG (domain or fragment)
chain: GKPKSSSQSTFHIPLSPVEVKPGNVRNIIQHFANNQQYDAPEPGTQRLSTGSFPEDLLESDSSRS
B4: GST(541–605, I568A)PRG (domain or fragment)
chain: GKPKSSSQSTFHIPLSPVEVKPGNVRNAIQHFENNQQYDAPEPGTQRLSTGSFPEDLLESDSSRS
B5: GST(541–605, F572A)PRG (domain or fragment)
chain: GKPKSSSQSTFHIPLSPVEVKPGNVRNIIQHAENNQQYDAPEPGTQRLSTGSFPEDLLESDSSRS

This test concerns the target F-actin (freshly polymerized actin) (UniProt P68135 1-377). Put plainly: co-sedimentation.
With B1, the “percent bound at 5 µM F-actin” value was ~75%.

Take B2: the “percent bound at 5 µM F-actin” value is ~25%. As to B3, the “percent bound at 5 µM F-actin” value is ~25%.

Regarding B4, the “percent bound at 5 µM F-actin” value is ~25%.

For B5, the “percent bound at 5 µM F-actin” value is ~25%.
